According to US20240207418A1 (PROFOUNDBIO US, published 2024):

Columns and labels:
[1] = biological target: T1, mouse FOLR1 extracellular domain linked to His tag (mouse, UniProt P35846 25-232, limits assumed); test: BLI, Ag 7.82 nM; * below range of quantification
T1 construct: extracellular domain; BLI analyte; also called Mouse-Ag; not shown: His tag

[2] = biological target: T2, rat FOLR1 extracellular domain linked to His tag (rat, UniProt G3V8M6 25-232); test: BLI, Ag 7.82 nM; * below range of quantification
T2 construct: BLI analyte; also called Rat-Ag

[3] = biological target: T1, mouse FOLR1 extracellular domain linked …; test: BLI, Ag 62.5 nM; * below range of quantification
[4] = biological target: T2, rat FOLR1 extracellular domain linked …; test: BLI, Ag 62.5 nM; * below range of quantification
[5] = biological target: T3, human FOLR3 extracellular domain linked to His tag (human, UniProt P41439 23-245, limits assumed); test: BLI, global 1:1 fit; all responses below quantification range
T3 construct: extracellular domain; BLI analyte; also called Hu-FRg; not shown: His tag

[6] = biological target: T2, rat FOLR1 extracellular domain linked …; test: as above
[7] = biological target: T1, mouse FOLR1 extracellular domain linked …; test: BLI, Ag 31.3 nM; * below range of quantification
[8] = biological target: T2, rat FOLR1 extracellular domain linked …; test: BLI, Ag 31.3 nM; * below range of quantification
[9] = biological target: T1, mouse FOLR1 extracellular domain linked …; test: BLI, Ag 15.6 nM; * below range of quantification
[10] = biological target: T2, rat FOLR1 extracellular domain linked …; test: BLI, Ag 15.6 nM; * below range of quantification
[11] = biological target: T1, mouse FOLR1 extracellular domain linked …; test: BLI, Ag 125 nM; * below range of quantification
[12] = biological target: T2, rat FOLR1 extracellular domain linked …; test: BLI, Ag 125 nM; * below range of quantification
[13] = biological target: T4, human FOLR1 protein, His tag (ACRO-FO1-H52H1) (human, UniProt P15328 25-233); test: ELISA, supernatant diluted 25x
T4 construct: Bought recombinant protein used for panning and for coating ELISA plates; not shown: His tag
T4 sequence (P15328 25-233 limits assumed): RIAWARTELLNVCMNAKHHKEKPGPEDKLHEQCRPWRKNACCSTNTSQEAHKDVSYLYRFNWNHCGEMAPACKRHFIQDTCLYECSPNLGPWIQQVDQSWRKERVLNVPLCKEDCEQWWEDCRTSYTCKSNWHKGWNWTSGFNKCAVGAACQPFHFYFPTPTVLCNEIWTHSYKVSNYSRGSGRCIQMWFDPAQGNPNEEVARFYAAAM

T2 sequence (G3V8M6 entry or part of it limits assumed): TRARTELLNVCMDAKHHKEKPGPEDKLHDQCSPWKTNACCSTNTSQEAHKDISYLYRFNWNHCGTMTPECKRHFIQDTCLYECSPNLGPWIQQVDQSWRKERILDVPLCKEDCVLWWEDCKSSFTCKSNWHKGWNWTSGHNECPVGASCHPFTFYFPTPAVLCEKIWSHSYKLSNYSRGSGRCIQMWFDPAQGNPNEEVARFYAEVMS
T1 sequence (P35846 25-232 limits assumed): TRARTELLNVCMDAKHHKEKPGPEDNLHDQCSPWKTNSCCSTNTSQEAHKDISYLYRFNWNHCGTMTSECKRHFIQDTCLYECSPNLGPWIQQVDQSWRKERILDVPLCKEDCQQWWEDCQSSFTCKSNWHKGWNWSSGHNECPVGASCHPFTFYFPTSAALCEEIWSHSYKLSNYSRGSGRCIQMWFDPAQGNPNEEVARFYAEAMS
T3 sequence (P41439 23-245 limits assumed): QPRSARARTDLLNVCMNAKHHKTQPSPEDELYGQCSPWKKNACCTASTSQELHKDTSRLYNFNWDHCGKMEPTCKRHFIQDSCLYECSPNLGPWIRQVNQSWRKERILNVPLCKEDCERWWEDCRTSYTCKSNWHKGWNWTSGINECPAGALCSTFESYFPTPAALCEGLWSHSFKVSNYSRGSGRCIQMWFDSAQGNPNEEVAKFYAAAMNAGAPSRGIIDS

B1: anti-huFOLR-1 conjugate F131-LD038 (antibody, V domains shown)
VH: EVQLLESGGGVVQPGRSLRLSCAASGFTFSSYGMHWVRQAPGKGLEWVAVISYDGSNKYYADSVKGRFTISRANSKNTLYLQMNSLRAEDTAVYYCARPRAYYGAYGSSFDYWGQGTQVTVSS
VL: EIVMTQSPSSVSASVGDRVAITCRASQGISSWLAWYQQKPGKAPKLLIYAASSLQSGVPSRFSGSGSGTDFTLTISSLQPEDFATYYCQQSYSTPLTFGGGTKVDIK
modifications: drug-linker LD038 coupled to cysteine thiols after TCEP reduction; positions not given; drug-linker LD038 (PB038; PEG unit, Val-Cit-PAB cleavable linker, exatecan) coupled by maleimide to cysteine thiols after TCEP reduction; DAR 7.6 by LC-MS; positions not given
notes: also called F131-038; PA038 conjugate of F131
[1]
  Response: -0.00483
[2]
  Response: -0.00438
[3]
  Response: -0.000242
[4]
  Response: -0.00393
[5]
  Kd: 0.0328 nM
[6]
  Kd: 84.8 nM
  koff: 0.224 s⁻¹
  kon: 2.64e+06 M⁻¹ s⁻¹
[7]
  Response: -0.00132
[8]
  Response: -0.00454
[9]
  Response: -0.00324
[10]
  Response: -0.00212
[11]
  Response: 0.0008
[12]
  Response: 0.0007

B2: anti-FOLR1 antibody F138 (antibody, V domains shown)
VH: EVQLLESGGGVVQPGRSLRLSCAASGFTFSSYGMHWVRQAPGKGLEWVAVISYDGSNKYYADSVKGRFTISTHNSKNTLYLQMNSLRAEDTAVYYCARPRAYYGAYGSSFDYWGQGTQVTVSS
VL: EIVMTQSPSSVSASVGDRVAITCRASQGISSWLAWYQQKPGKAPKLLIYAASSLQSGVPSRFSGSGSGTDFTLTISSLQPEDFATYYCQQSYSTPLTFGGGTKVDIK
notes: Tested as full-length IgG with an IgG1 Fc, expressed in HEK293 (transfection supernatant); also called clone F138
[13]
  OD450: 0.827 OD450

B3: anti-FOLR1 antibody F131 (antibody, V domains shown)
VH: EVQLLESGGGVVQPGRSLRLSCAASGFTFSSYGMHWVRQAPGKGLEWVAVISYDGSNKYYADSVKGRFTISRANSKNTLYLQMNSLRAEDTAVYYCARPRAYYGAYGSSFDYWGQGTQVTVSS
VL: EIVMTQSPSSVSASVGDRVAITCRASQGISSWLAWYQQKPGKAPKLLIYAASSLQSGVPSRFSGSGSGTDFTLTISSLQPEDFATYYCQQSYSTPLTFGGGTKVDIK
notes: Tested as full-length IgG with an IgG1 Fc (HEK293 supernatant and purified; later ExpiCHO-S); also called F131 mAb; F131 Ab
[1]
  Response: 0.0027
[2]
  Response: -0.00563
[3]
  Response: -0.00178
[4]
  Response: -0.00606
[6]
  koff: 1.03 s⁻¹
  kon: 5490 M⁻¹ s⁻¹
[7]
  Response: -0.00251
[8]
  Response: -0.00532
[9]
  Response: -0.0051
[10]
  Response: -0.00395
[11]
  Response: -0.000579
[12]
  Response: -0.00477
